Test system: T1, peptide TRPM7p (Ac-RKKYRIVWKSIFRRFL)
T1 sequence: RKKYRIVWKSIFRRFL

Substance: TRPM7 kinase
- fold increase in activity as compared to peptide MH-U: 30 to 35 fold increase in activity
- phosphorylation at a single substrate concentration (100 µM): both peptides are efficiently phosphorylated by their respective kinases

— patent publication US20110020842
